Source: patent US20220033505A1 (Janssen / Centocor, published 2022)

B1: HC3B230 (CD3B219-LH-scFv-Fc x MHGB732-Fab-Fc) (bispecific antibody, human IgG1, kappa, L234A L235A)
scFv: QTVVTQEPSLTVSPGGTVTLTCRSSTGAVTTSNYANWVQQKPGQAPRGLIGGTNKRAPGTPARFSGSLLGGKAALTLSGVQPEDEAEYYCALWYSNLWVFGGGTKLTVLGGSEGKSSGSGSESKSTGGSEVQLVESGGGLVQPGGSLRLSCAASGFTFNTYAMNWVRQAPGKGLEWVARIRSKYNNYATYYAASVKGRFTISRDDSKNSLYLQMNSLKTEDTAVYYCVRHGNFGNSYVSWFAYWGQGTLVTVSSEPKSSDKTHTCPPCPAPEAAGGPSVFLFPPKPKDTLMISRTPEVTCVVVSVSHEDPEVKFNWYVDGVEVHNAKTKPREEQYNSTYRVVSVLTVLHQDWLNGKEYKCKVSNKALPAPIEKTISKAKGQPREPQVYVYPPSREEMTKNQVSLTCLVKGFYPSDIAVEWESNGQPENNYKTTPPVLDSDGSFALVSKLTVDKSRWQQGNVFSCSVMHEALHNHYTQKSLSLSPG
heavy: QVQLQQSGPGLVKPSQTLSLTCAISGDSVSSNSAAWNWIRQSPSRGLEWLGRTYYRSKWYNDYAVSVKSRITINPDTSKNQISLQLNSVTPEDTAVYYCAGDRRYGIVGLPFAYWGQGTLVTVSSASTKGPSVFPLAPSSKSTSGGTAALGCLVKDYFPEPVTVSWNSGALTSGVHTFPAVLQSSGLYSLSSVVTVPSSSLGTQTYICNVNHKPSNTKVDKKVEPKSCDKTHTCPPCPAPEAAGGPSVFLFPPKPKDTLMISRTPEVTCVVVSVSHEDPEVKFNWYVDGVEVHNAKTKPREEQYNSTYRVVSVLTVLHQDWLNGKEYKCKVSNKALPAPIEKTISKAKGQPREPQVYVLPPSREEMTKNQVSLLCLVKGFYPSDIAVEWESNGQPENNYLTWPPVLDSDGSFFLYSKLTVDKSRWQQGNVFSCSVMHEALHNHYTQKSLSLSPG
light: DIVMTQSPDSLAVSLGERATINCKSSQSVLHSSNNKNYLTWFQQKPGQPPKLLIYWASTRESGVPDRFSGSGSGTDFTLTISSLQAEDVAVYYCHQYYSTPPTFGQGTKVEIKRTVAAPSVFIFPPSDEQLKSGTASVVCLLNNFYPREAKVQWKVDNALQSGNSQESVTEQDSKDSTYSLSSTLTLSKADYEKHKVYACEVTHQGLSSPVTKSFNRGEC
B2: HC3B125 (CD3B376-Fab-Fc x MHGB732-LH-scFv-Fc, no C-terminal Lys) (bispecific antibody, human IgG1, lambda, L234A L235A)
heavy: QVQLQQSGPRLVRPSQTLSLTCAISGDSVFNNNAAWSWIRQSPSRGLEWLGRTYYRSKWLYDYAVSVKSRITVNPDTSRNQFTLQLNSVTPEDTALYYCARGYSSSFDYWGQGTLVTVSSASTKGPSVFPLAPSSKSTSGGTAALGCLVKDYFPEPVTVSWNSGALTSGVHTFPAVLQSSGLYSLSSVVTVPSSSLGTQTYICNVNHKPSNTKVDKKVEPKSCDKTHTCPPCPAPEAAGGPSVFLFPPKPKDTLMISRTPEVTCVVVSVSHEDPEVKFNWYVDGVEVHNAKTKPREEQYNSTYRVVSVLTVLHQDWLNGKEYKCKVSNKALPAPIEKTISKAKGQPREPQVYVYPPSREEMTKNQVSLTCLVKGFYPSDIAVEWESNGQPENNYKTTPPVLDSDGSFALVSKLTVDKSRWQQGNVFSCSVMHEALHNHYTQKSLSLSPG
light: QSALTQPASVSGSPGQSITISCTGTSSNIGTYKFVSWYQQHPDKAPKVLLYEVSKRPSGVSSRFSGSKSGNTASLTISGLQAEDQADYHCVSYAGSGTLLFGGGTKLTVLGQPKAAPSVTLFPPSSEELQANKATLVCLISDFYPGAVTVAWKADSSPVKAGVETTTPSKQSNNKYAASSYLSLTPEQWKSHRSYSCQVTHEGSTVEKTVAPTECS
scFv: DIVMTQSPDSLAVSLGERATINCKSSQSVLHSSNNKNYLTWFQQKPGQPPKLLIYWASTRESGVPDRFSGSGSGTDFTLTISSLQAEDVAVYYCHQYYSTPPTFGQGTKVEIKGGSEGKSSGSGSESKSTGGSQVQLQQSGPGLVKPSQTLSLTCAISGDSVSSNSAAWNWIRQSPSRGLEWLGRTYYRSKWYNDYAVSVKSRITINPDTSKNQISLQLNSVTPEDTAVYYCAGDRRYGIVGLPFAYWGQGTLVTVSSEPKSSDKTHTCPPCPAPEAAGGPSVFLFPPKPKDTLMISRTPEVTCVVVSVSHEDPEVKFNWYVDGVEVHNAKTKPREEQYNSTYRVVSVLTVLHQDWLNGKEYKCKVSNKALPAPIEKTISKAKGQPREPQVYVLPPSREEMTKNQVSLLCLVKGFYPSDIAVEWESNGQPENNYLTWPPVLDSDGSFFLYSKLTVDKSRWQQGNVFSCSVMHEALHNHYTQKSLSLSPG
B3: HC3B124 (CD3B219-Fab-Fc x MHGB732-scFv-Fc) (bispecific antibody, human IgG1, lambda, L234A L235A)
heavy: EVQLVESGGGLVQPGGSLRLSCAASGFTFNTYAMNWVRQAPGKGLEWVARIRSKYNNYATYYAASVKGRFTISRDDSKNSLYLQMNSLKTEDTAVYYCVRHGNFGNSYVSWFAYWGQGTLVTVSSASTKGPSVFPLAPSSKSTSGGTAALGCLVKDYFPEPVTVSWNSGALTSGVHTFPAVLQSSGLYSLSSVVTVPSSSLGTQTYICNVNHKPSNTKVDKKVEPKSCDKTHTCPPCPAPEAAGGPSVFLFPPKPKDTLMISRTPEVTCVVVSVSHEDPEVKFNWYVDGVEVHNAKTKPREEQYNSTYRVVSVLTVLHQDWLNGKEYKCKVSNKALPAPIEKTISKAKGQPREPQVYVYPPSREEMTKNQVSLTCLVKGFYPSDIAVEWESNGQPENNYKTTPPVLDSDGSFALVSKLTVDKSRWQQGNVFSCSVMHEALHNHYTQKSLSLSPG
light: QTVVTQEPSLTVSPGGTVTLTCRSSTGAVTTSNYANWVQQKPGQAPRGLIGGTNKRAPGTPARFSGSLLGGKAALTLSGVQPEDEAEYYCALWYSNLWVFGGGTKLTVLGQPKAAPSVTLFPPSSEELQANKATLVCLISDFYPGAVTVAWKADSSPVKAGVETTTPSKQSNNKYAASSYLSLTPEQWKSHRSYSCQVTHEGSTVEKTVAPTECS
scFv: B2 scFv
B4: HC3B123 (CD3W246-Fab-Fc x MHGB732-LH-scFv-Fc) (bispecific antibody, human IgG1, kappa, L234A L235A)
heavy: EVQLVESGGGLVKPGGSLRLSCAASGFTFSRYNMNWVRQAPGKGLEWVSSISTSSNYIYYADSVKGRFTFSRDNAKNSLDLQMSGLRAEDTAIYYCTRGWGPFDYWGQGTLVTVSSASTKGPSVFPLAPSSKSTSGGTAALGCLVKDYFPEPVTVSWNSGALTSGVHTFPAVLQSSGLYSLSSVVTVPSSSLGTQTYICNVNHKPSNTKVDKKVEPKSCDKTHTCPPCPAPEAAGGPSVFLFPPKPKDTLMISRTPEVTCVVVSVSHEDPEVKFNWYVDGVEVHNAKTKPREEQYNSTYRVVSVLTVLHQDWLNGKEYKCKVSNKALPAPIEKTISKAKGQPREPQVYVYPPSREEMTKNQVSLTCLVKGFYPSDIAVEWESNGQPENNYKTTPPVLDSDGSFALVSKLTVDKSRWQQGNVFSCSVMHEALHNHYTQKSLSLSPGK
light: DIQMTQSPSSLSASVGDRVTITCRARQSIGTAIHWYQQKPGKAPKLLIKYASESISGVPSRFSGSGSGTDFTLTISSVQPEDFATYYCQQSGSWPYTFGQGTKLEIKRTVAAPSVFIFPPSDEQLKSGTASVVCLLNNFYPREAKVQWKVDNALQSGNSQESVTEQDSKDSTYSLSSTLTLSKADYEKHKVYACEVTHQGLSSPVTKSFNRGEC
scFv: B2 scFv
B5: HC3B216 (CD3B376-Fab-Fc x MHGB737-scFv-Fc) (bispecific antibody, human IgG1, lambda, L234A L235A)
heavy: QVQLQQSGPRLVRPSQTLSLTCAISGDSVFNNNAAWSWIRQSPSRGLEWLGRTYYRSKWLYDYAVSVKSRITVNPDTSRNQFTLQLNSVTPEDTALYYCARGYSSSFDYWGQGTLVTVSSASTKGPSVFPLAPSSKSTSGGTAALGCLVKDYFPEPVTVSWNSGALTSGVHTFPAVLQSSGLYSLSSVVTVPSSSLGTQTYICNVNHKPSNTKVDKKVEPKSCDKTHTCPPCPAPEAAGGPSVFLFPPKPKDTLMISRTPEVTCVVVSVSHEDPEVKFNWYVDGVEVHNAKTKPREEQYNSTYRVVSVLTVLHQDWLNGKEYKCKVSNKALPAPIEKTISKAKGQPREPQVYVYPPSREEMTKNQVSLTCLVKGFYPSDIAVEWESNGQPENNYKTTPPVLDSDGSFALVSKLTVDKSRWQQGNVFSCSVMHEALHNHYTQKSLSLSPGK
light: B2 light
scFv: not shown
B6: HC3B214 (CD3W246-Fab-Fc x MHGB737-scFv-Fc) (bispecific antibody, human IgG1, kappa, L234A L235A)
heavy: B4 heavy
light: B4 light
scFv: not shown
B7: MHGB665/MHGB732 (one printed row for both names), IgG1 mAb (antibody, V domains shown)
VH: QVQLQQSGPGLVKPSQTLSLTCAISGDSVSSNSAAWNWIRQSPSRGLEWLGRTYYRSKWYNDYAVSVKSRITINPDTSKNQISLQLNSVTPEDTAVYYCAGDRRYGIVGLPFAYWGQGTLVTVSS
VL: not shown
notes: tested as IgG1 mAb
B8: MHGB668 (antibody, human IgG1, kappa, V domains shown)
VH: QVQLQQSGPGLVKPSQTLSLTCAISGDSVSNNSAAWNWIRQSPSRGLEWLGRTYYRSKWYNDYAVSVKSRITINPDTSKNQFSLQLNSVTPEDTAVYYCARYGSGTLLFDYWGQGTLVTVSS
VL: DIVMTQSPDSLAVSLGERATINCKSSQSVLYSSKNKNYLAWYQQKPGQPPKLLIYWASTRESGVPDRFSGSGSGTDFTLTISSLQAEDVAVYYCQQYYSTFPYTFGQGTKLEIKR
notes: IgG1 mAb
B9: MHGB687 (antibody, human IgG1, kappa, V domains shown)
VH: QLQLQESGPGLVKPSETLSLMCTVSGGSITSSSYYWGWIRQPPGKGLEWIGNIYYSGTTYYNPSLKSRVTISVDTSKNQFSLKLSSVTAADTAVYYCAAGARDFDSWGQGSLVTVSS
VL: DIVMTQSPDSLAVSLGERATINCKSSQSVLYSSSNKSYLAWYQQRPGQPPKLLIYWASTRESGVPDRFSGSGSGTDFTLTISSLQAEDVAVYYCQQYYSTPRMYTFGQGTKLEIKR
notes: IgG1 mAb
B10: MHGB738 (GL optimized B688) (antibody, human IgG1, kappa, V domains shown)
VH: QVQLQQSGPGLVKPSQTLSLTCAISGDSVSSNRAAWNWIRQSPSRGLEWLGRTYYRSKWYNDYAVSVKSRITINPDTSKNQISLQLNSVTPEDTAVYYCARVRPGIPFDYWGQGTPVTVSS
VL: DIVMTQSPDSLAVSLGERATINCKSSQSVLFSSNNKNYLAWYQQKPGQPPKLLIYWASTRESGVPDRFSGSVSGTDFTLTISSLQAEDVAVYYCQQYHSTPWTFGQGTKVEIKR
notes: IgG1 mAb

target: HLA-G on NCI-H2009-b2m target cells (human, UniProt P17693 25-338); test: cell-based or functional assay

Row | Binder | Cytotoxicity, EC50 (M); T cell-mediated cytotoxicity against NCI-H2009-b2m cells, 72 hr, E:T 3:1 [M]
1 | B1 | 9.92e-12
2 | B2 | 5.65e-11
3 | B3 | 3.85e-12
4 | B4 | 3.24e-12
5 | B5 | 1.9e-09
6 | B6 | 1.38e-10

target: T1, HLA-G1 on K562 cells (K562-HLA-G) (human); test: flow cytometry; IgG1 mAb on cells expressing HLA-G
T1 construct: also called cells expressing HLA-G
Procedure: Briefly, 1.5×10⁷ cells were washed 2 times with 1×PBS and resuspended in 7 mL of 1×PBS and incubated for 10 min. After incubation, 8 mL of fetal bovine serum (FBS) were added, cells were washed by centrifugation at 300×g for 5 min and resuspended at 1×10⁶ cells/mL in DMEM supplemented with 10% FBS. […] After incubation, 150 μL of staining buffer were added and cells were washed by centrifugation at 300×g for 5 min. Cells were resuspended in 200 μL of running buffer (staining buffer supplemented with 1 mM EDTA, 0.1% (v/v) pluronic acid) and washed by centrifugation at 300×g for 5 min. Cells were resuspended in 30 mL of running buffer and analyzed for antibody binding by flow cytometry.

Row | Binder | Geomean fluorescence signal (maximum value for binding)
7 | B7 | 632000
8 | B8 | 591000
9 | B9 | 528000

target: T2, MHGW8 (B2m-3(G4S)-HLA-G1-G4S-Avi), soluble HLA-G1 extracellular domain (human, biotinylated (Avi tag) in the ligand blocking assay); test: competition, flow cytometry: antibody titrated against MHGW8-dextramer binding to ILT2 on HEK293T cells (competitor ILT2)
T2 construct: also called HLA-G (MHGW8); recombinant biotinylated HLA-G1 (MHGW8)
Procedure: (§1) Cells were added (25,000 cells) and incubated for 30 min at 4° C. […] The resuspended mixture was analyzed for fluorescence signal by flow cytometry using an Intellicyt® iQue Screener Plus.

Row | Binder | EC50 [nM]
10 | B10 | 0.73

target: T2, MHGW8 (B2m-3(G4S)-HLA-G1-G4S-Avi), …; test: competition, flow cytometry: antibody titrated against MHGW8-dextramer binding to ILT4 on HEK293T cells (competitor ILT4)
Procedure: as §1

Row | Binder | EC50 [nM]
11 | B9 | 1.86
12 | B10 | 0.8
